Data published in the Immune Epitope Database (IEDB).

Tests used:
HLA-A*68:02 = assay: IEDB peptide-MHC binding, purified MHC/competitive/radioactivity; filed as Kd, often an IC50 or EC50 that approximates it; ≥ and ≤ were set here for values at or beyond the usual limits of such assays
HLA-A*02:06 = assay: as above
HLA-A*02:03 = assay: as above
HLA-A*02:02 = assay: as above
HLA-B*15:01 [1] = assay: as above
HLA-B*57:01 = assay: IEDB peptide-MHC binding, purified MHC/direct/fluorescence; filed as Kd, often an IC50 or EC50 that approximates it; ≥ and ≤ were set here for values at or beyond the usual limits of such assays; settings: source organism: Toxoplasma gondii
HLA-B*58:01 = assay: as above; settings: source organism: Toxoplasma gondii
HLA-B*51:01 = assay: IEDB peptide-MHC binding, purified MHC/competitive/radioactivity; filed as Kd, often an IC50 or EC50 that approximates it; ≥ and ≤ were set here for values at or beyond the usual limits of such assays
HLA-A*30:01 = assay: as above
HLA-A*26:01 = assay: as above
HLA-A*01:01 = assay: as above
HLA-A*30:02 = assay: as above
HLA-A*32:01 = assay: as above
HLA-A*29:02 = assay: as above
HLA-B*15:01 [2] = assay: IEDB peptide-MHC binding, purified MHC/direct/fluorescence; filed as Kd, often an IC50 or EC50 that approximates it; ≥ and ≤ were set here for values at or beyond the usual limits of such assays; settings: source organism: Homo sapiens
HLA-B*07:02 = assay: as above; settings: source organism: Homo sapiens
HLA-A*31:01 = assay: IEDB peptide-MHC binding, purified MHC/competitive/radioactivity; filed as Kd, often an IC50 or EC50 that approximates it; ≥ and ≤ were set here for values at or beyond the usual limits of such assays; settings: source organism: Vaccinia virus WR
HLA-A*03:01 = assay: as above; settings: source organism: Vaccinia virus WR
HLA-A*33:01 = assay: as above; settings: source organism: Vaccinia virus WR
HLA-A*11:01 = assay: as above; settings: source organism: Vaccinia virus WR
HLA-A*68:01 = assay: as above; settings: source organism: Vaccinia virus WR
HLA-B*53:01 = assay: as above; settings: source organism: Dengue virus 2 Peru/IQT2913/1996
HLA-A*23:01 = assay: as above; settings: source organism: Mammarenavirus guanaritoense
HLA-A*24:02 = assay: as above; settings: source organism: Mammarenavirus guanaritoense
HLA-B*08:01 = assay: IEDB peptide-MHC binding, purified MHC/direct/fluorescence; filed as Kd, often an IC50 or EC50 that approximates it; ≥ and ≤ were set here for values at or beyond the usual limits of such assays; settings: source organism: Coxiella burnetii Q321
[3] = source organism: Trypanosoma cruzi
[4] = source organism: Dengue virus 1 Brazil/97-11/1997
[5] = source organism: Dengue virus 3 Martinique/1243/1999
[6] = source organism: Vaccinia virus WR
[7] = source organism: Mammarenavirus guanaritoense
[8] = source organism: Mammarenavirus lassaense
[9] = source organism: Vaccinia virus Copenhagen
[10] = source organism: Lassa virus Josiah
[11] = source organism: Dengue virus 2 Jamaica/1409/1983
[12] = source organism: Dengue virus 1 Singapore/S275/1990

LLGLWGLATA
Kd (HLA-A*68:02; [3]): 407 nM
Kd (HLA-A*02:06; [3]): 57.9 nM
Kd (HLA-A*02:03; [3]): 1.39 nM
Kd (HLA-A*02:02; [3]): 1.69 nM

GQGPMKLVM
Kd (HLA-B*15:01 [1]; [4]): 11.4 nM

KTSGRGSCM
Kd (HLA-B*57:01): ≥ 20000 nM
Kd (HLA-B*58:01): 6000 nM

LLLGVGLAM
Kd (HLA-B*15:01 [1]; [5]): 31.7 nM

SGIGTFLHY
Kd (HLA-B*15:01 [1]; [6]): 23.3 nM

FSGKGPLRMV
Kd (HLA-B*51:01; source organism: Dengue virus 4 Philippines/H241/1956): ≥ 38000 nM

KGFYASPSV
Kd (HLA-A*30:01; [6]): 2.68 nM

NLQKESRACL
Kd (HLA-A*68:02; source organism: Homo sapiens): 19700 nM

PLNDNIATLL
Kd (HLA-A*68:02; source organism: Homo sapiens): 7440 nM

MYKKAEASF
Kd (HLA-B*15:01 [1]; [6]): 69.3 nM

YSDPKRFFL
Kd (HLA-A*26:01; [7]): ≥ 77900 nM
Kd (HLA-A*01:01; [7]): 7.32 nM
Kd (HLA-A*30:02; [7]): 85.9 nM
Kd (HLA-A*30:01; [7]): 6160 nM
Kd (HLA-A*32:01; [7]): ≥ 77800 nM
Kd (HLA-A*29:02; [7]): ≥ 21300 nM

LPHQPLATY
Kd (HLA-B*15:01 [2]): 2350 nM
Kd (HLA-B*07:02): 5980 nM

ASPILRFLY
Kd (HLA-A*26:01; [8]): 9660 nM
Kd (HLA-A*01:01; [8]): 331 nM
Kd (HLA-A*30:02; [8]): 97.4 nM
Kd (HLA-A*30:01; [8]): ≥ 78100 nM
Kd (HLA-A*32:01; [8]): 1100 nM
Kd (HLA-A*29:02; [8]): 91.7 nM

HTHLSNQNL
Kd (HLA-A*30:01; [6]): 5.78 nM

RSANTSAPF
Kd (HLA-B*15:01 [1]; [6]): 0.681 nM

MSPGYVLGV
Kd (HLA-A*68:02; source organism: Dengue virus 4 Dominica/814669/1981): 99.6 nM

FINSTCYVF
Kd (HLA-B*15:01 [1]; [6]): 4.34 nM

EMILSTSSM
Kd (HLA-B*15:01 [1]; [9]): 1.47 nM

LIALSVLAV
Kd (HLA-A*68:02; [10]): 323 nM
Kd (HLA-A*02:06; [10]): 336 nM
Kd (HLA-A*02:03; [10]): 2.63 nM
Kd (HLA-A*02:02; [10]): 117 nM

TTKDYFSFK
Kd (HLA-A*31:01): 1.33 nM
Kd (HLA-A*03:01): 18.1 nM
Kd (HLA-A*33:01): 17.6 nM
Kd (HLA-A*30:01; [6]): 1.23 nM
Kd (HLA-A*11:01): 0.861 nM
Kd (HLA-A*68:01): 1.07 nM

EAIMAVGMV
Kd (HLA-A*26:01; [11]): 43.9 nM
Kd (HLA-A*68:02; [11]): 1.79 nM

CTILAVVSV
Kd (HLA-A*68:02; source organism: Dengue virus 2 16681-PDK53): 54.1 nM

RFRTVLISK
Kd (HLA-A*30:01; [9]): 4.59 nM

LPVWLAYKV
Kd (HLA-B*51:01; source organism: Dengue virus 2 Peru/IQT2913/1996): 515 nM
Kd (HLA-B*53:01): 157 nM

RAILGCAQA
Kd (HLA-A*30:01; [6]): 2370 nM

IMKIGIGVL
Kd (HLA-B*15:01 [1]; source organism: Dengue virus 3 Singapore/8120/1995): 123 nM

GEKSRCYSLY
Kd (HLA-A*26:01; [7]): ≥ 69700 nM
Kd (HLA-A*01:01; [7]): ≥ 42300 nM
Kd (HLA-A*23:01): ≥ 44600 nM
Kd (HLA-A*30:02; [7]): 751 nM
Kd (HLA-A*30:01; [7]): 6850 nM
Kd (HLA-A*24:02): ≥ 70300 nM
Kd (HLA-A*32:01; [7]): ≥ 69900 nM
Kd (HLA-A*29:02; [7]): ≥ 10000 nM

YLRRRIGMI
Kd (HLA-B*08:01): 6 nM

KVYIGYCMA
Kd (HLA-A*30:01; [6]): 2.6 nM

FQSHQLWATL
Kd (HLA-B*15:01 [1]; [12]): 30.4 nM
Kd (HLA-A*32:01; [12]): 1960 nM

LSANLFESQ
Kd (HLA-B*15:01 [1]; [6]): 45 nM

EPPFGESYI
Kd (HLA-B*51:01; [4]): 13800 nM

ELRRQVDQL
Kd (HLA-A*68:02; source organism: Homo sapiens): 1210 nM

VTPSMTMRCV
Kd (HLA-A*68:02; [5]): 193 nM

GVVTRSGAYV
Kd (HLA-A*68:02; [11]): 333 nM

ATFTVNIFK
Kd (HLA-A*30:01; [6]): 3.13 nM
